Patent publication US20240124865
Residue numbers refer to the chain shown, from its start. In names and notes the source's numbering stands.

B1: ADAMTS13 P1182K variant (Exemplified P1182K variant) (protein)
chain: AAGGILHLELLVAVGPDVFQAHQEDTERYVLTNLNIGAELLRDPSLGAQFRVHLVKMVILTEPEGAPNITANLTSSLLSVCGWSQTINPEDDTDPGHADLVLYITRFDLELPDGNRQVRGVTQLGGACSPTWSCLITEDTGFDLGVTIAHEIGHSFGLEHDGAPGSGCGPSGHVMASDGAAPRAGLAWSPCSRRQLLSLLSAGRARCVWDPPRPQPGSAGHPPDAQPGLYYSANEQCRVAFGPKAVACTFAREHLDMCQALSCHTDPLDQSSCSRLLVPLLDGTECGVEKWCSKGRCRSLVELTPIAAVHGRWSSWGPRSPCSRSCGGGVVTRRRQCNNPRPAFGGRACVGADLQAEMCNTQACEKTQLEFMSQQCARTDGQPLRSSPGGASFYHWGAAVPHSQGDALCRHMCRAIGESFIMKRGDSFLDGTRCMPSGPREDGTLSLCVSGSCRTFGCDGRMDSQQVWDRCQVCGGDNSTCSPRKGSFTAGRAREYVTFLTVTPNLTSVYIANHRPLFTHLAVRIGGRYVVAGKMSISPNTTYPSLLEDGRVEYRVALTEDRLPRLEEIRIWGPLQEDADIQVYRRYGEEYGNLTRPDITFTYFQPKPRQAWVWAAVRGPCSVSCGAGLRWVNYSCLDQARKELVETVQCQGSQQPPAWPEACVLEPCPPYWAVGDFGPCSASCGGGLRERPVRCVEAQGSLLKTLPPARCRAGAQQPAVALETCNPQPCPARWEVSEPSSCTSAGGAGLALENETCVPGADGLEAPVTEGPGSVDEKLPAPEPCVGMSCPPGWGHLDATSAGEKAPSPWGSIRTGAQAAHVWTPAAGSCSVSCGRGLMELRFLCMDSALRVPVQEELCGLASKPGSRREVCQAVPCPARWQYKLAACSVSCGRGVVRRILYCARAHGEDDGEEILLDTQCQGLPRPEPQEACSLEPCPPRWKVMSLGPCSASCGLGTARRSVACVQLDQGQDVEVDEAACAALVRPEASVPCLIADCTYRWHVGTWMECSVSCGDGIQRRRDTCLGPQAQAPVPADFCQHLPKPVTVRGCWAGPCVGQGTPSLVPHEEAAAPGRTTATPAGASLEWSQARGLLFSPAPQPRRLLPGKQENSVQSSACGRQHLEPTGTIDMRGPGQADCAVAIGRPLGEVVTLRVLESSLNCSAGDMLLLWGRLTWRKMCRKLLDMTFSSKTNTLVVRQRCGRPGGGVLLRYGSQLAPETFYRECDMQLFGPWGEIVSPSLSPATSNAGGCRLFINVAPHARIAIHALATNMGAGTEGANASYILIRDTHSLRTTAFHGQQVLYWESESSQAEMEFSEGFLKAQASLRGQYWTLQSWVPEMQDPQSWKGKEGTSRGPFEQKLISEEDLNMHTGHHHHHH
B2: Myc/His6-tagged recombinant wildtype human ADAMTS13 (Exemplified wildtype ADAMTS13) (protein)
chain: B1 chain with K1108P
B3: Myc/His6-tagged ADAMTS13 A1146V variant (Exemplified A1146V variant) (protein)
chain: B1 chain with A1072V, K1108P
B4: Myc/His6-tagged ADAMTS13 P1180V variant (Exemplified P1180V variant) (protein)
chain: B1 chain with P1106V, K1108P
B5: Myc/His6-tagged ADAMTS13 P1182V variant (Exemplified P1182V variant) (protein)
chain: B1 chain with K1108V
B6: ADAMTS13 P1182I variant (Exemplified P1182I variant) (protein)
chain: B1 chain with K1108I
B7: Myc/His6-tagged ADAMTS13 A1144V variant (Exemplified A1144V variant) (protein)
chain: B1 chain with A1070V, K1108P

Target: T1, FRETS-VWF73 substrate (VWF fragment comprising VWFA2 domain residues 1596 to 1668)
T1 chain: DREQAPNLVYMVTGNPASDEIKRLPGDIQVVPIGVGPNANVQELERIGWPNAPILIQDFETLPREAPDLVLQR

| Protein | proteolytic activity, FRETS-VWF73 assay, fold increase | proteolytic activity, FRETS-VWF73 assay, basal (no VWF-D4CK); reference for all other activities | proteolytic activity, FRETS-VWF73 assay, absence of VWF-D4CK, fold over wildtype ADAMTS13 | proteolytic activity, FRETS-VWF73 assay, in the absence and in the presence of the activating VWF-D4CK fragment |
| --- | --- | --- | --- | --- |
| B1 | Induces greater than 10-fold increase in activity | – | – | – |
| B2 | – | All activities are presented relative to the basal activity of wtADAMTS13 (100%) | – | – |
| B3 | – | – | more than 4-fold higher than wildtype ADAMTS13 | displayed significantly higher proteolytic activity compared to wildtype ADAMTS13 and the R568K/F592Y/R660K/Y661F/Y665F variant |
| B4 | – | – | more than 4-fold higher than wildtype ADAMTS13 | displayed significantly higher proteolytic activity compared to wildtype ADAMTS13 and the R568K/F592Y/R660K/Y661F/Y665F variant |
| B5 | – | – | more than 4-fold higher than wildtype ADAMTS13 | displayed significantly higher proteolytic activity compared to wildtype ADAMTS13 and the R568K/F592Y/R660K/Y661F/Y665F variant |
| B6 | Induces greater than 10-fold increase in activity | – | – | – |
| B7 | – | – | more than 4-fold higher than wildtype ADAMTS13 | displayed significantly higher proteolytic activity compared to wildtype ADAMTS13 and the R568K/F592Y/R660K/Y661F/Y665F variant |
